The source of these data is article PMC6778059 (Nature cell biology, 2019).

Holding throughout (experiment): ITC
For orientation: Isothermal titration calorimetry measures the heat released or taken up as one component is titrated into another.

Assay [1] concerns the target SNX32 PX domain.
Assay [2] concerns the target T1, SNX6 PX domain (UniProt Q9UNH7 26-173).
T1 sequence: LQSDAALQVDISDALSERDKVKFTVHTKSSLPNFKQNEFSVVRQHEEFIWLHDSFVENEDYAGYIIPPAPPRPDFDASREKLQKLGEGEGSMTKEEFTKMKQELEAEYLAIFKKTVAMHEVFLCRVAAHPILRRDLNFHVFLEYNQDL

For assay [3], the target named is T2, SNX5 PX domain (UniProt Q9Y5X3 25-172).
T2 sequence: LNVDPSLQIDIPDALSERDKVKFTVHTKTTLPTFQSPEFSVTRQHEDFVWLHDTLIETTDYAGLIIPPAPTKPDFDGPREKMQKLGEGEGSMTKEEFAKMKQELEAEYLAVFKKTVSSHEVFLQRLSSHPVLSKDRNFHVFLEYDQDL

As a reminder, the Kd is the constant that tells how readily two partners part at equilibrium. A lower Kd goes with a tighter complex. Take “CI-MPR peptide (residues 2347-2375) (from UniProt P11717 2347-2375)”: the Kd in assay [1] amounted to 12 µM.
Regarding SNVSYKYSKVNKEEETDENETEWLMEEIQ [CI-MPR peptide (residues 2347-2375)], the results for the Kd in assay [2] and in assay [3] were 24 µM and ~25 µM, respectively.
For SNVSYKYSKVNKEEETDENETEWLDEEIQ [CI-MPR peptide M2371D], the binding result in assay [3] is listed as “binds”.
Still for that read-out and setting: the same measure for SNVSYKYSKVNKEEETDENETEWDMEEIQ [CI-MPR peptide L2370D]: “binds”.
Regarding SNVSYKYSKVNKEEETDENETEAAAEEIQ [CI-MPR peptide WLM-AAA], the binding result in assay [3] is “binds”.
As for WDPVGYYYSDGSLKIVPGHARCQPG [SEMA4C peptide (residues 731-755)], binding in assay [3] was characterised by a dissociation constant (Kd) of 26 µM.
On the same count and under the same terms, with REVSFYYSEENKLPEPEELDLEPENMES [IGF1R peptide (residues 1275-1302)] the figure was 15 µM.
